According to PMC6538607:

What was measured:
[1] = biological target: p43, the major excreted/secreted protein of Trichuris muris (native p43) (Trichuris muris); experiment: MST; serial dilution of IL-13 from 2500 nM to 40 pM with 5 nM NHS-647-labeled p43; 20 mM HEPES, 150 mM NaCl, 0.005% Tween-20, pH 7.4; KD model (1:1 stoichiometry); three reactions
[2] = biological target: p43, the major excreted/secreted protein of Trichuris muris (native p43) (Trichuris muris); experiment: native MS; p43 and IL-13 mixed at a ratio of 1.5:1 in 250 mM ammonium acetate, pH 7, 2 h at room temperature; nano-electrospray, collision-induced dissociation of the mass-selected 18+ ion of the complex

B1: recombinant murine interleukin-13 (ligand)
chain: APGPVPRSVSLPLTLKELIEELSNITQDQTPLCNGSMVWSVDLAAGGFCVALDSLTNISNCNAIYRTQRILHGLCNRKAPTTVSSLPDTKIEVAHFITKLLSYTKQLFRHGPF
[1]
  Kd: 420 nM
[2]
  stoichiometry N: 1
